These results are taken from article PMC5586342, “Mouse glutamate carboxypeptidase II (GCPII) has a similar enzyme activity and inhibition profile but a different tissue distribution to human GCPII” (FEBS Open Bio, 2017).

As a reminder, the Km is the substrate concentration at which the rate is half of its maximum. Usually kcat stands for the maximal rate divided by the concentration of active sites. Usually kcat/Km stands for the second-order rate constant that governs catalysis at low substrate concentration.

Data set [1] concerns the target T1, Avi-mGCPII (recombinant extracellular mouse GCPII) (Mus musculus, UniProt O35409).
T1 construct: gene Folh1; extracellular domain (45-752), N-terminal biotinylated Avi-tag with TEV site, secreted from Drosophila S2 cells, streptavidin mutein purification
The experiment in a line: HPLC assay of pteroyl-di-L-glutamate cleavage. The data set is classed as biochemical. To be noted: for Ki: read-out: K i (Avi-mGCPII). The text has this:
HPLC assay of pteroyl-di-L-glutamate cleavage on Avi-mGCPII (recombinant extracellular mouse GCPII)

For data set [2], the target named is T2, Avi-hGCPII (recombinant extracellular human GCPII) (Homo sapiens, UniProt Q04609).
T2 construct: gene FOLH1
As to the kind of experiment: HPLC assay of pteroyl-di-L-glutamate cleavage. Type of data set: biochemical. The following applies: for Ki: read-out: K i (Avi-hGCPII). From the text: HPLC assay of pteroyl-di-L-glutamate cleavage on Avi-hGCPII (recombinant extracellular human GCPII)

The test system of data set [3] is CC(=O)N[C@@H](CC(=O)O)C(=O)N[C@@H](CCC(=O)O)C(=O)O. As to the kind of experiment: radioenzymatic assay. Type of data set: biochemical, Homo sapiens. To be noted: […] Bis-Tris propane, […] NaCl, pH […]. The text has this:
radioenzymatic assay on Avi-hGCPII (recombinant extracellular human GCPII)

Substrate in the data set “HPLC assay”: Nc1nc2ncc(CNc3ccc(C(=O)N[C@@H](CCC(=O)N[C@@H](CCC(=O)O)C(=O)O)C(=O)O)cc3)nc2c(=O)[nH]1
The experiment in a line: HPLC assay. The following applies: […] Bis-Tris propane, […] NaCl, pH […]. The data set is classed as biochemical, Mus musculus. From the text: HPLC assay on Avi-mGCPII (recombinant extracellular mouse GCPII)

Substrate in the data set “radioenzymatic assay”: CC(=O)N[C@@H](CC(=O)O)C(=O)N[C@@H](CCC(=O)O)C(=O)O
As to the kind of experiment: radioenzymatic assay. The following applies: […] Bis-Tris propane, […] NaCl, pH […]. The data set is classed as biochemical, Mus musculus. The text has this: radioenzymatic assay on Avi-mGCPII (recombinant extracellular mouse GCPII)

Setting [4] is: substrate pteroyl-di-L-glutamate ([…] final), […] Bis-Tris propane, […] NaCl, pH […] °C.

Like-named read-outs stand apart in the source and are kept apart here.

T2 sequence (Q04609 44-750 limits assumed): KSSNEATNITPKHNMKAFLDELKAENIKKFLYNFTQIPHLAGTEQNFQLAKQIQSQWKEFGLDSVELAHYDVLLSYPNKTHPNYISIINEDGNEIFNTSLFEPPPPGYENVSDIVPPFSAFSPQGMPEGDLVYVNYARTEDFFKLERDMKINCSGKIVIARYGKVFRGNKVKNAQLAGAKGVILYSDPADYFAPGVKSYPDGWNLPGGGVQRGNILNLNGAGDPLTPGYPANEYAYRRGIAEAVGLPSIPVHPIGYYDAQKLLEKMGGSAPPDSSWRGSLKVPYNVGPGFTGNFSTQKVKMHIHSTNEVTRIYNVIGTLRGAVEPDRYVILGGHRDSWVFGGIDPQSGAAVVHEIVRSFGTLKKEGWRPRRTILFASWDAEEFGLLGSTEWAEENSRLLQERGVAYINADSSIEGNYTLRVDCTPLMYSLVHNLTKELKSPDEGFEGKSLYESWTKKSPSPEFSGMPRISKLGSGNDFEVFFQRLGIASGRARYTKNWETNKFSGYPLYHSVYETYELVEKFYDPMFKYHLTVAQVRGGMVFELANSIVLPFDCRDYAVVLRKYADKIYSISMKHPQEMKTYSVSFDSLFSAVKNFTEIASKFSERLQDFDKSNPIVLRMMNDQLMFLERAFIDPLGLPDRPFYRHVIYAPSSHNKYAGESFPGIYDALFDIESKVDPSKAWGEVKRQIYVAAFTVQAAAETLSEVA

For `O=C(O)CCc1ccc(O)c(CN(CCN(CC(=O)O)Cc2cc(CCC(=O)NCCCCCC(=O)NCCCC[C@H](NC(=O)N[C@@H](CCC(=O)O)C(=O)O)C(=O)O)ccc2O)CC(=O)O)c1` [DKFZ-PSMA-11], the Ki in data set [1] worked out at 0.1 ± 0.01 nM; in data set [2] (setting [4]) it was 0.018 ± 0.002 nM.
Take `O=C(O)CC[C@H](NC(=O)C(O)(CC(=O)O)CC(=O)O)C(=O)O` [β-citryl-L-glutamate]: the “K i (Avi-mGCPII) (nM)” value in data set [1] (setting [4]) is 24 000 ± 3000 nM. In addition, the “K i (Avi-hGCPII) (nM)” value in data set [2] (setting [4]) is reported as 16 000 ± 5000 nM.
Consider `CC(C)C[C@H](NC(=O)N[C@@H](CCC(=O)O)C(=O)O)C(=O)O` [ZJ-43, (S)‐2‐(3‐((S)‐1‐carboxy‐3‐methylbutyl)ureido)pentanedioic acid], for which, in data set [1], the Ki was determined as 5.9 ± 0.9 nM.
On to `O=C(O)CCC(CP(=O)(O)O)C(=O)O` (centres unmarked) [2-PMPA, 2‐(phosphonomethyl)pentanedioic acid], for which the Ki in data set [1] (setting [4]) was 0.56 ± 0.05 nM.
Consider “Avi-hGCPII (recombinant extracellular human GCPII) (Homo sapiens)”, for which, in data set [3], the Km turned out to be 0.55 ± 0.06 µM, the turnover number (kcat) was found to be 1.45 ± 0.04 s⁻¹ and the kcat/Km came out at 2.65e+06 ± 70000 M⁻¹ s⁻¹.
As for `N[C@@H](Cn1oc(=O)[nH]c1=O)C(=O)O` [Quisqualate], the Ki in data set [1] turned out to be 580 ± 60 nM; in data set [2], 520 ± 80 nM.

B1: Avi-mGCPII (recombinant extracellular mouse GCPII) (Mus musculus) (protein)
chain: KPSNEATGNVSHSGMKKEFLHELKAENIKKFLYNFTRTPHLAGTQNNFELAKQIHDQWKEFGLDLVELSHYDVLLSYPNKTHPNYISIINEDGNEIFKTSLSEQPPPGYENISDVVPPYSAFSPQGTPEGDLVYVNYARTEDFFKLEREMKISCSGKIVIARYGKVFRGNMVKNAQLAGAKGMILYSDPADYFVPAVKSYPDGWNLPGGGVQRGNVLNLNGAGDPLTPGYPANEHAYRHELTNAVGLPSIPVHPIGYDDAQKLLEHMGGPAPPDSSWKGGLKVPYNVGPGFAGNFSTQKVKMHIHSYTKVTRIYNVIGTLKGALEPDRYVILGGHRDAWVFGGIDPQSGAAVVHEIVRSFGTLKKKGRRPRRTILFASWDAEEFGLLGSTEWAEEHSRLLQERGVAYINADSSIEGNYTLRVDCTPLMYSLVYNLTKELQSPDEGFEGKSLYDSWKEKSPSPEFIGMPRISKLGSGNDFEVFFQRLGIASGRARYTKNWKTNKVSSYPLYHSVYETYELVVKFYDPTFKYHLTVAQVRGAMVFELANSIVLPFDCQSYAVALKKYADTIYNISMKHPQEMKAYMISFDSLFSAVNNFTDVASKFNQRLQELDKSNPILLRIMNDQLMYLERAFIDPLGLPGRPFYRHIIYAPSSHNKYAGESFPGIYDALFDISSKVNASKAWNEVKRQISIATFTVQAAAETLREVA
notes: extracellular domain (45-752), N-terminal biotinylated Avi-tag with TEV site, secreted from Drosophila S2 cells, streptavidin mutein purification
Turning to B1, in the data set “HPLC assay”, the Km stood at 0.29 ± 0.02 µM, the kcat was found to be 3.63 ± 0.09 s⁻¹ and the kcat/Km came out at 1.26e+07 ± 800000 M⁻¹ s⁻¹. Moreover, in “radioenzymatic assay”, the Km turned out to be 1.9 ± 0.1 µM, the kcat was found to be 1.44 ± 0.02 s⁻¹ and the specificity constant (kcat/Km) was 770000 ± 10000 M⁻¹ s⁻¹.
